Assay: soluble on expression in E. coli; label from the status in PepcDB or PDB records

| Sequence | soluble on expression in E. coli |
| --- | --- |
| MRVASVRWFTPPTRPRPAPLFFGQERALRALEAAFLHRGHGYLVGPSGLGKRARLLAFLEGRAFPKEELVYLPLGEEAFPLLLPEGEGRALVEGVEALFAEFTPGLFREKGFLYAKNLVESRHEREAEALLQTLAQEAKAHGFALAEEEGGFTLTGQGPLPPELSAKLEETVLAYVEVRQRAQAEVAALRRSFAERLLQPRVEGLKARFPEAARYLDWLLESLLRAAALEEEVEGEALLPRLLVEGGTRVVYEPNPTPERLFGHLEYEVREGVLTTHLGLLRPGALMRAAGGVLVLEAHRVLELGSYPLLKRSLATGEIEPLAPRPEVRGPRLQPAPLKAQVFLVGPPEVIALLEEDEEFLELFPFRVEFNPEMPYTEAHVAHLGGFLEAQGVRLLPEGLAALADEARRMAGHQERLDARIYRLLDLAREAARYQDPVGREGVERALKAREDRFALEQELFLKDVEEGVVALEVTGERVGEVNGLVVLEGPLPTGRPVRITAQAGPGREGILSIDREVGLGGQVFHKAVLTLAGYLRGTYAQLGALSATVSLVFEQSYGSLEGDSAGLAELLAVLSAISGLPLRQDLAVTGAVDQTGRVLAVGRVAEKVEGFFRVCQTLGLTGTQGVVLPKANLPHLTLRREVVEAVEEGVFHLFAVEEVDEAVELLFGRRAYWVHEKVREALEHFQKLENGDGEKG | soluble |
| MAVEEFNQNLNEIMKFKECNITVDTCVVIDGRITELISDGTIEKCTIIVPEAVISELEAQANKGREIGYFGIEELKKLVKVAKENEMVLEYYGERPSTGEVSLAKAGEIDAMIRKVAKDTNSILFTSDRIQYNLAIAQNINAHFLKVHEEKVDLKLV | not soluble |
| MSLLRLTSVVGIGHAEDPNPRFRKQMEDVCVMIDKLGNSHSTGFFAIYDGHGGQEAARIAGDNLHRYLLEDLLNQKLEHLLEADPLANQSMSQPTCSQAGSKLSSDGHNLSGNPSGVPKDSQLTNATMSSGVRTGTFSKDKISPSAKVRVPVPPNEPSKLGAIIRKAIQRTDDVLRQKNVLYVGCTALIALVTKYTIEFASVGDSRAVISINGTAYRCTEDHKASDKLEIDRIKSLGGTVIFGRVNGFISVSRALGDHCIKNLVTCDPFLRSYPRYPTPDSVGVTASSTNELDEFIIMACDGVWDVVTDQQSVDTVRKCLKETGSPQKAAFELKNLAIRSGTQDNVSVLVLLLREINKWEGHHHHHH | soluble |
| MTEDRNFDDIAHKFAKNIYGSDKGEIRQVIVWEDLEQLLSQLDTQKVPLHVLDAGGGLAQVSQKIARLGHRVTLCDLSSEMLQLAEQDIANNGLLEQYRFVHSPVQTIQAHLDAPVDLVLFHAVMEWLAEPKPALQNLLAQVRPGGMVSVMFYNYHGLVYKNAVCGNIPHVLEDMPHRKRFKLQPQKGLLPEEVYQWIEESSFEICGKSGIRCFSDYIGNMKNMGEYQYEDLVALERKFCRQEPYLSLGRYIHVWAKKKQ | not soluble |
| MRNLVKYAGIGLLVMGLAACDNNDTKASAESAAAESQASGQPISLMDGKLSFSLPADMTDQSGKLGTQANNMHVYSDPTGQKAVIVIVGDNTDEALPVLANRLLEQQRSRDPQLQVVTNKSIELKGHTLQQLDSIISAKGQTAYSSIVLGKVDNQLLTIQVTLPADNQQKAQTTAENIINTLVIK | not soluble |
| MFNLKREHFRDDYLYRFYQYGDTHSKIPSNLYKVLARKLDMISASENINDLRSPPANHLELLEPKENKIYSIRVNKQYCLIFKYENNEVNNLYLDPHSYNL | not soluble |
| MSLSAGLRFTLEVDGLPPDAFAVVSFHLNQSFSSLFSLDLSLVSQQFLSLEFAQVLDKMAYLTVWQGDDVQRRVKGVVTWFELGENDKNQMLYSMKVCPPLWRTGLRQNFRIFQNEDIESILATILKENGVTEWSPLFSEPHPSREFCVQYGETDYDFLCRMAAEEGIFFYEEHAQKSTDQSLVLCDTVRYLPESFEIPWNPNTRTEVSTLCISQFLYSAQIRPSSVVTKDYTFKRPGWAGRFDQEGQHQDYQRTQYEVYDYPGRFKGAHGQNFACWQMDGWRNNAEVARGTSRSPEIWPGRRIALTGHPQANLNREWQVVASELHGEQPQAVPGRRGSGTTLNNHFAVIPADRTWRPQPLLKPLVDGPQSAVVTGPAGEEIFCDEHGRVRVKFNWDRYNPSNQDSSCWIRVAQAWAGTGFGNLAIPRVGQEVIVDFLNGDPDQPIIMGRTEGHHHHHH | not soluble |
| MQIFRDVSKLLVERVDPKILNLFRLLGKFGDEVNMPVYVVGGFVRDLLLGIKNLDIDIVVEGNALEFAEYAKRFLPGKLVKHDKFMTASLFLKGGLRIDIATARLEYYESPAKLPDVEMSTIKKDLYRRDFTINAMAIKLNPKDFGLLIDFFGGYRDLKEGVIRVLHTLSFVDDPTRILRAIRFEQRFDFRIEETTERLLKQAVEEGYLERTTGPRLRQELEKILEEKNPLKSIRRMAQFDVIKHLFPKTYYTPSMDEKMENLFRNIPWVEENFGEVDRFYAVLHVFLEFYDDESWKEVRDRYSLRRNLINEIRHVEKSAPALLEMLSERVPASFVYPLVKGVSNETICHFLAYLSGEKEGLFKSYLLKIKNTKLEKINGEYLIRKGITSGKIIGEVLEKILMKKLDGDTRDEEEILEEVLASLETEGKLAAALEHHHHHH | soluble |
| MSLDNNIKIIPFGGVRENGKNMYAVEIEDQIFILDTGLKYPENELMGIDVVIPDWEYLREHKDKIVGVFLTHGHADSIGALPYFLMDFNVPVFGSEMTIALAKLAVKNHKEVKKFNDFHVVDASTAIDFNDVTVSFFQTTHTIPETLGVVLETKAGNIVYTGDFKFDQTAKKGYQTDLARLAEIGSQGVLALLSDSAGAGITGASAREQDIGDYIKETFKYQNGRIIVASVASNIMRVQQIINAAVAVGRKIVLSGKDIEQIIDTAMSLGKLHLPDDLFISRKEAEKLEPNQVVILETGKMGEPIKSLQQIANGDNPNLQLTSTDLVFVTTTPSYAQETEVQKTKDMIYRTGAEVKFISDDLNPSGHANQNDEQLMLNFMKPKFFIPIQGEYRLLDRHAELAEEVGIPKENIFLVNKGDVLTYKNGKFHVGEHIDVSNTMIDGTGVGDIGNIVLRDRRVLSEDGIFVVVATIDRKKKKIVARPQITSRGFVFVKTNRQLMQQSADLVEKIVQENLDQKEFDWSHLKQDVRDKLNRFLFDQTKRHPVILPVIMEINQHQKKIKNEGHHHHHH | soluble |
| MAHHHHHHMSFVKGAIHVSILNNYMDFYKESTVDKIETSFSIRNNNESNTKNNEKRKSSLCIMNDEEKMKNKISKCIKNNNLYKNKKKRRKEKNIISNKSRSKKFLKFNIKGKDKKNNINSNIYNNANNNKLKIKNKNNNNNNNNNKINSCCRNVYKGSTNKRNSKLLLNGEIKHDEIFHTNIDNSFICMNKNDMNLIRKCKENNHPIKQMNTKIKKKKYNKKNVLISKQINKEIQMLKSNNSYIMYHMNEKRNIEKEKKKKKCKKIVKSILYNRKRSHYYISNFLKTCMKIKNNKIQKKLKKYVYLKDIYSTINMSNKQTCNNLNEQNKSQFFFDDLQKVRQVNKCDNKLYKMNFKSLKHQTNGKKNNIKENDNNNNFYNEDNSIAEILSDDYIILNKNKSNKMENKIYNNVINHRHSSEDIYLNHSKSKENNNNLVNSYVMKENNMEDKELMNDNEKKEGQLILKNVNKKIQLCNESKLDNEKKNKGDNIKLGNTKNKDNIYKYLNVLSINKLIKGETYLEKRTKKSDNSNEHKNDNIYDDKKIKYKSVENDTSELLDKNIDNSNFFDEANEKKKKLKKKKMNTCVNKNVMDYVNEDEYYLEERVKKKRKKKKKDNKKYNIKNKNESEEIFEDVSSTNSCIDSNNSGTFIYDEEICKHVINKGNIISNNNNNNNNNNYIVLTGNEKNMNAEEISEYITKQGLNFKEYLIWKEIKIKESKELIHLNLDSSFSVSKGAGLYNYGQNICFFNSIIQAIIRIPYICKDLLNKLHSINCEKRKKKTFCFYCLFEQFACNIISKKSVIKNVLIPYIKKYMCNSYHIGYQEDVHEYLRYFLNSLEKTSFFSSIYIQKMFTGVSKNVTICMNCNNVSLKYEQYYELSLDISSSNNLEDALKHFLSKEMLAGENGYYCEKCKKKKKATKQCVINKLPRVLTIQIKRFFMNSNFDIVKNHKNISYPLYLDMKYYVNNYDLFENNFNNNVISLYEKMNKTNCVGSTTNGPNKKNNKIYHQNNSCNIKSNNHFVHTNYNNKGQNILTPEKLTQQNIIPEHSFSKNKVNYENDFFLNNMNKKRECSNDDIISNINKNENIFFNNKDKEYMINEKYMNTNQCIKLRGGNHNINMHVLKIIENILIDLKESMCQKQIQNKLTSKVLRNMIREKKKLLIKQLKKIKFSKLYKDISLRISKDIDMLYYYFKVNRENDQFKKIIYKYKIDYYEYYVGSTNINADFINYNHNFDSPAKDHHNNNPHQNNDENNNRHSNVNFKEGNAKNSNKKNNYFSFELTGLIKHIGSGTDYGHYIALTKSNNNIYLQCDDNHISYINKKDILNCVKNAYVFIYTCINPEFIDFYNKYVDVLEKKNFDINLPVFEKRVKFKERITMPKEKFINKSLCY | not soluble |
| MGSDKIHHHHHHMAAILPARITKVLPDSIAAEIGFEAGDALVAINGVQPRDLIDYKFLCSDEFLELEVLDASGKTHHIEIEKDYDEDLGLEFETALFDGLIQCNNRCPFCFIDQQPPGKRSSLYLKDDDYRLSFLYGSYLTLTNLPEREWQRIEQMRLSPLYVSVHATEPEVRIRLLKNQRAAQILDQLRWFQARRLQIHAQVVVCPGINDGKHLEQTLRDLASFHDGDVPTVASVAVVPVGLTRFRPEEDELIPVTREKAQEVIAQVRSLTQEFRRQFGSNVAWLADEWFLIAGEELPSEAEYEEYPQIDNGVGSIRLFLKQFAETAAELLPTKINHPKKLTWVVGNAVEKAFQPILKSLNAVEGLEINMCALSSDYWGQTISVTGLITGHDLLLHLKEQDLGGGILLPNVMLKHGELVFLDDMSVEEVAQKLHTKIIPIAGVKELIKTCITDSVSV | not soluble |
| MEIAKEIKDFLTTRRARITPDQVGLPTGGRRRVAGLRREVVAMLAGVSAEYYVQIERGGVSGVSDEVLYAIATALRLDDEETKHLFTLARAASTRPRRRIAPRARVEVPEPVQALVDAMITAPAVVQNGHLDIVAVNALGRALYADVFDRSDGVPNLARFIFLDRRAGETFPDWNHAADDAVAILRSEAARSPYSAAVTGLVGELATRSDEFRTRWATHDIKAHRRGTKRFHHPVVGDLTLRFEALEVASAAGLTLFGFTAEPGSPSEESLRLLSSWAASDRPEHQHS | not soluble |
| MDNPEPARIVRLMEHRADIAIVGGGLNGPALALALAQSGQSVVLVDALPDPLRTDAEFDGRAYALALASQRLLAAVGVWDHVAEAAQPMLEIKVSDGHAGAGPSPFFLHFDHAEIEEGPMGYMVEDRYLRRALLAAMEDAPRITRLNGAAVTAQQTDGTGVVLTLADGSHLRAGLVVGCDGRKSGTATRAGIKRTGWDYGQTALVCAIAHERPHHGIAHQFFMPPGPLAILPLPGNRSSIVWSERTEAAARINALPEAEYLEILRPRFGDFLGEIRLEGARFTYPLNLTVANAFVAERLALVGDAAHGMHPIAGQGLNAGLRDVGALAEVLILAARRGEDIGAAPVLERYQQWRRFDTATLALATDAFNRLFSNDNPLLRLGRDVGMGVIGAFPGLRRGFVREATGLTGDLPKLMQGRAILEHHHHHH | not soluble |
| MGSDKIHHHHHHMLESYITVKQDGFSEIEIKKSRFICSVKRVTSEEEAKAFIAAIKKEHWKANHNCSAFVIGEKNDIQRSSDDGEPSGTAGVPMLEVLKKKELINVVAVVTRYFGGIKLGTGGLIRAYSHALSHTLDEIGLVIGKLQQELLITIAYPLLGKAQAFLEHSPYTLKETIYTESIQLICLVDEQATETFIAEMTDLLNGQLTIEKGATSYHELPFNEKGAQANDI | not soluble |
| MGSDKIHHHHHHMDPRRRLVPDIITLQAFECAARHGNFTRAAEELNLTQSAVSRQIGELEAQTGMQLFERIRRRVVLSEAGRKFLPDVRRLLQQSEQLMVRAVSAGTSHASLSVATLPTFGSRWLMPRLSRFIDANPDMTITIGSRSHPFDFDEEGFDLAIHYGQPIWAHGTCTFLCNEVIVPVASPALLRRAGVNRAQDLAGQPLLHVTTRPKLWTEWLEMNGVTADNAYQGSRFDQFSMIIEAAASGIGFALLPRYLIEAELASSRLEIVFDIPLQTDKSYYVALPEGRQDNVLARAFQAWLLDQVGKPV | not soluble |
